Patent US5807943A, “Synthesis of glycopolymers” (Johns Hopkins University, priority 1997, dated 1998)

Legend:
serum-MBP-CRD = target: T1, serum-MBP-CRD (Rattus norvegicus, UniProt P19999); assay: Solid-phase binding assay, inhibition of 125I-[mannose30-BSA] binding to serum MBP-CRD; settings: in the concentration range of SBA tested
T1 construct: Recombinant rat MBP-CRDs from serum and liver were expressed and purified; made in house; host or cells: bacteria (expression plasmid-bearing bacterial strains, gift of Dr. Kurt Drickamer)
Procedure: (§1) Glycoamidase A was from Seikagaku America, Inc. (Rockville, Md.). GlcNAc was purchased from Pfanstiehl Laboratories, Inc. (Waukegan, Ill.). 3-(N-acryloylamino)-propyl β-D-GlcNAc (GlcNAc-NAP) and GlcNAc-O-(CH2)3CH=CH2 were gifts from Dr. Shin-Ichiro Nishimura of Hokkaido University, Japan.
(§2) All steps were carried out at 4° C. Briefly, CRD (50 μl) was coated onto individual polystyrene wells (Immulon 4 Removawell Strips by Dynatech, from Fisher Scientific). […] Ligands and inhibitors were in 0.5% BSA in the above Tris buffer for binding and inhibition. […] The well contents were then removed, washed, and counted in a Packard Minaxi gamma counter.

liver-MBP-CRD = target: T2, liver-MBP-CRD (Rattus norvegicus, UniProt P08661); assay: Solid-phase binding assay, inhibition of 125I-[mannose30-BSA] binding to liver MBP-CRD
T2 construct: Recombinant rat MBP-CRDs from serum and liver were expressed and purified; made in house; host or cells: bacteria (expression plasmid-bearing bacterial strains, gift of Dr. Kurt Drickamer)
T2 sequence (P08661 129-241 limits assumed): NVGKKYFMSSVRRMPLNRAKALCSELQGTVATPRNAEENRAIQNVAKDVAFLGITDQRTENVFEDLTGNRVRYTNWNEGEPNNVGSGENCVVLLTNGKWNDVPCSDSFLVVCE
Procedure: as §1, §2

In the case of soybean agglutinin [SBA], the “inhibition of the serum-MBP-CRD (in words)” value (serum-MBP-CRD) is reported as “no significant inhibition”, the IC50 (liver-MBP-CRD; concentration based on Man9 GlcNAc2, 4° C., 20 hr incubation, read-out: I50 for the liver-MBP-CRD) is reported as 13.2 µM and the “I50 for the liver-MBP-CRD” value (liver-MBP-CRD; expressed as mg/ml of SBA) is reported as 0.4 mg/mL.
